Publication doi:10.1101/2023.09.11.557127

Biological target: human wild-type 5-HT1AR with C-terminal ARMS2-PK2 (5-HT1AR-ARMS2-PK2) (human) (UniProt P08908)
Experiment: split reporter

UniProt P08908, sequence (P08908 whole entry): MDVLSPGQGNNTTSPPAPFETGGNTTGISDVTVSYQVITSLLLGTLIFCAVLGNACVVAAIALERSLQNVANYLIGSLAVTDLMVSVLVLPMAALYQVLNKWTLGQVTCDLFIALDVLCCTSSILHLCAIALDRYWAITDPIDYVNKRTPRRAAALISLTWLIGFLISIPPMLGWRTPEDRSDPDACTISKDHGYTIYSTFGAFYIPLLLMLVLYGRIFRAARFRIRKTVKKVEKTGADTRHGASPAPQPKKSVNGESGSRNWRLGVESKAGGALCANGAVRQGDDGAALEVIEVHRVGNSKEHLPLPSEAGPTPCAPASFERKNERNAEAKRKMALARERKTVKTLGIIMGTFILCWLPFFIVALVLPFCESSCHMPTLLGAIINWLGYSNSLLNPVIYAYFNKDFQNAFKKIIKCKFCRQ

β-arrestin-2-EA (from UniProt P32121 1-409) (natural protein)
Emax of recruitment with ST171, elevated GRK2 (% of serotonin): 15% | Emax of recruitment with ST171, native GRK2 (% of serotonin): < 5% | Emax of recruitment with befiradol, elevated GRK2 (% of serotonin): 96% | Emax of recruitment with befiradol, native GRK2 (% of serotonin): 67%
